Experimental data taken from patent US20210024646A1 (published 2021).
Positions count from the first letter of the chain named. Values joined by “and” are separate entries in the source; they are usually repeats but may differ in a detail not shown here. Equal entries are not always repeated.

T1: CD73 on the surface of human tumor cells (human, UniProt P21589 27-549)
T1 chain: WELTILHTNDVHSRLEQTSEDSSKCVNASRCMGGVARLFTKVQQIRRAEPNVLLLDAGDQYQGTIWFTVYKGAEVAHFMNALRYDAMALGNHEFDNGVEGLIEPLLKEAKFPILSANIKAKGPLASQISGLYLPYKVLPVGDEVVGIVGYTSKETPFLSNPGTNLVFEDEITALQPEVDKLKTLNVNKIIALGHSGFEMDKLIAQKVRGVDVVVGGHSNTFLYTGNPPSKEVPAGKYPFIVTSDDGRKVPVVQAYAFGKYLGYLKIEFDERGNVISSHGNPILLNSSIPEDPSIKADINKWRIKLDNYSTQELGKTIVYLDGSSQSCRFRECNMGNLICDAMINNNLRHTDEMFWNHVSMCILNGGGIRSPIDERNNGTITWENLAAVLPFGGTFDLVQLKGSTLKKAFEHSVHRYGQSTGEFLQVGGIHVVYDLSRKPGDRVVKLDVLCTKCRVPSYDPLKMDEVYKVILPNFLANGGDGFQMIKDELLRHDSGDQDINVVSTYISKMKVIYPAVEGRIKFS

T2: Carbon-terminal polyhistidine-labeled recombinant cynomolgus monkey CD73 enzyme (cynomolgus monkey, UniProt A0A2K5V5U7 1-547)
T2 chain: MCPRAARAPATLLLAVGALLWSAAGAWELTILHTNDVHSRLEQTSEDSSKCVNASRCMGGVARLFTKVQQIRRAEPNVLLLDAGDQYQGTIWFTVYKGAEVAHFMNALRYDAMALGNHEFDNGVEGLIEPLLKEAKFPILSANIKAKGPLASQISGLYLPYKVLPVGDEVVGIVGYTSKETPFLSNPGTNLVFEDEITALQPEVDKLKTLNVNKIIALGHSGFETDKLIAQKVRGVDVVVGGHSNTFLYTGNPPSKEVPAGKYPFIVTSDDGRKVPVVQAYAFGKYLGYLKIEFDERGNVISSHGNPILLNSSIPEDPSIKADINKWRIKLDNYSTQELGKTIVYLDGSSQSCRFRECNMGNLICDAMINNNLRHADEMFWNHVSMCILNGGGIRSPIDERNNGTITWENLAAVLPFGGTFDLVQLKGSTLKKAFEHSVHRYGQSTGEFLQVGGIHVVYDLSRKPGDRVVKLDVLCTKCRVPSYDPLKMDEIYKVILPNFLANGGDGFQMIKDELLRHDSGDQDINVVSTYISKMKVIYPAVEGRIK

T3: extracellular domain of human CD73 protein (CD73-ECD), C-terminus polyhistidine-tagged (UniProt P21589 27-547)
T3 chain: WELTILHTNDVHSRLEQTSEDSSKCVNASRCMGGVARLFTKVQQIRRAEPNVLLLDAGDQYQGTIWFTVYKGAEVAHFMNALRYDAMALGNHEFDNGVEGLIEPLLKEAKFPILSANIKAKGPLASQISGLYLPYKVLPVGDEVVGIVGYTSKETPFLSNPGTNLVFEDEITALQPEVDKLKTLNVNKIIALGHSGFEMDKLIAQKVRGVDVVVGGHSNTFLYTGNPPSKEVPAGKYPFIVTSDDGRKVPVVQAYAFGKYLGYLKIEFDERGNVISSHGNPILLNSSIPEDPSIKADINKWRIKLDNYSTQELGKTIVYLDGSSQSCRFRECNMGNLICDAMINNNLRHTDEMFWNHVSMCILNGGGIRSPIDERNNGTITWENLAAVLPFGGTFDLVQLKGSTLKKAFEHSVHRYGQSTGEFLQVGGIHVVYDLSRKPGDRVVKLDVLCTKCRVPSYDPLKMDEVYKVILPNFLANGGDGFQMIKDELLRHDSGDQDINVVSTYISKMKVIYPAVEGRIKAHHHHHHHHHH

B1: Hu001c-31 (antibody, V domains shown)
VH: QVQLVQSGAEVKKPGASVKVSCKASGYTFTNYYIYWVRQAPGQRLEWIGWIYPGNLNIKYNEKFKGRSTLTADKSASTAYMELSSLRSEDTAVYYCARDDNYAWFAYWGQGTLVTVSS
VL: DIQMTQSPSSLSASVGDRVTITCKASQDVSTAVAWYQQKPGKAPKLLIYWTNTRHTGVPSRFSGSGSGTDHTLTISSLQPEDFATYYCQQHYSTPFTFGQGTKLEIK
B2: Hu001c-32 (antibody, V domains shown)
VH: B1 VH with R38K, A40R
VL: B1 VL
B3: Hu001c-30 (antibody, V domains shown)
VH: B1 VH with R38K, A40R
VL: B1 VL with H71F
B4: Hu001c-14 (antibody, V domains shown)
VH: B1 VH with A24T, I48M, S68V, L70I, K74T
VL: B1 VL
B5: Hu001c-23 (antibody, V domains shown)
VH: B1 VH with R38K, A40R, R44G, S68V, L70I
VL: B1 VL
B6: mAb002c-VH-QG/VK-SG (antibody, V domains shown)
VH: QVQLQQPGAELVKPGASVRLSCKASGYTLTSYWMHWVKKRPGQGLEWIGEINPSQGRSNYNEKFKSKATLTVDRSSSTVYMQLGSLTSEDSAVYYCARRGVSGNYFDYWGQGTTLTVSS
VL: DIKMTQSPSSMYASLGERVTMTCKASQDINTYLSWFQQKPGKSPKTLIYRSNILVSGVPSRFSGSRSGQDYYLTITSLEYEDMGIYYCLQYDEFPYTFGGGTKLELK
B7: Hu001c-24 (antibody, V domains shown)
VH: B1 VH with A24T, R38K, A40R, R44G, S68V, L70I
VL: B1 VL
B8: Hu001c-28 (antibody, V domains shown)
VH: B1 VH with A24T, R38K, A40R, R44G, S68V, L70I
VL: B1 VL with A43S
B9: Hu001c-21 (antibody, V domains shown)
VH: B1 VH with S68V, L70I
VL: B1 VL
B10: Hu001c-22 (antibody, V domains shown)
VH: B1 VH with R38K, A40R, S68V, L70I
VL: B1 VL
B11: Hu001c-25 (antibody, V domains shown)
VH: B1 VH with S68V, L70I
VL: B1 VL with A43S
B12: Hu002c-12 (antibody, V domains shown)
VH: QVQLVQSGAEVKKPGASVKVSCKASGYTLTSYWMHWVRQAPGQGLEWIGEINPSQGRSNYNEKFKSKVTLTVDRSTSTVYMELSSLRSEDTAVYYCARRGVSGNYFDYWGQGTLVTVSS
VL: DIQMTQSPSSLSASVGDRVTITCKASQDINTYLSWFQQKPGKSPKSLIYRSNILVSGVPSRFSGSGSGQDYTLTISSLQPEDFAIYYCLQYDEFPYTFGGGTKLEI
B13: Hu002c-11 (antibody, V domains shown)
VH: B12 VH
VL: DIQMTQSPSSLSASVGDRVTITCKASQDINTYLSWFQQKPGKSPKSLIYRSNILVSGVPSRFSGSGSGQDYTLTISSLQPEDFATYYCLQYDEFPYTFGGGTKLEIK
B14: Hu002c-14 (antibody, V domains shown)
VH: B12 VH with R38K, Q39K
VL: B13 VL with S43A, G100Q

Molecular target: T1, CD73 on the surface of human tumor cells
Assay: FACS; MDA-MB-231 cells, right table

| EC50 [nM] | Binder |
| --- | --- |
| 0.514 | B1 |
| 0.608 | B2 |
| 0.695 | B3 |
| 0.626 | B4 |
| 0.593 | B5 |

Molecular target: T1, CD73 on the surface of human tumor cells
Assay: inhibition of cell-surface CD73 enzyme activity; left panel

| IC50 [nM] | Binder |
| --- | --- |
| 0.448 | B6 |

Molecular target: T1, CD73 on the surface of human tumor cells
Assay: FACS; NCI-H1299 cells, right table

| EC50 [nM] | Binder |
| --- | --- |
| 1.24 | B1 |
| 1.62 | B2 |
| 1.61 | B3 |
| 1.16 | B4 |
| 1.48 | B5 |

Molecular target: T2, Carbon-terminal polyhistidine-labeled …
Assay: enzyme inhibition; left table

| IC50 [nM] | Binder |
| --- | --- |
| 0.044 | B6 |
| 0.04 | B7 |
| 0.03 | B8 |
| 0.37 | B9 |
| 0.08 | B10 |
| 0.34 | B11 |
| 0.11 | B4 |
| 0.07 | B5 |

Molecular target: T1, CD73 on the surface of human tumor cells
Assay: FACS; NCI-H1299 cells, left table

| EC50 [nM] | Binder |
| --- | --- |
| 0.73 | B6 |

Molecular target: T1, CD73 on the surface of human tumor cells
Assay: FACS; MDA-MB-231 cells, left table

| EC50 [nM] | Binder |
| --- | --- |
| 0.557 | B6 |

Molecular target: T1, CD73 on the surface of human tumor cells
Assay: FACS; NCI-H1299 cells, left table
Remark: another data set of the same source

| EC50 [nM] | Binder |
| --- | --- |
| 1.28 | B7 |
| 1.41 | B8 |
| 1.42 | B10 |
| 1.33 | B4 |
| 1.3 | B5 |

Molecular target: T3, extracellular domain of human CD73 …
Assay: enzyme inhibition; left table

| IC50 [nM] | Binder |
| --- | --- |
| 0.02 | B7 |
| 0.03 | B8 |
| 0.12 | B9 |
| 0.03 | B10 |
| 0.3 | B11 |
| 0.06 | B4 |
| 0.03 | B5 |

Molecular target: T1, CD73 on the surface of human tumor cells
Assay: FACS; MDA-MB-231 cells, left table
Remark: another data set of the same source

| EC50 [nM] | Binder |
| --- | --- |
| 0.432 | B7 |
| 0.446 | B8 |
| 0.205 | B9 |
| 0.522 | B10 |
| 0.435 | B11 |
| 0.449 | B4 |
| 0.4 | B5 |

Molecular target: T1, CD73 on the surface of human tumor cells
Assay: FACS; MDA-MB-231 cells, right table
Remark: another data set of the same source

| EC50 [nM] | Binder |
| --- | --- |
| 0.557 | B6 |
| 0.715 | B12 |
| 0.693 | B13 |
| 0.642 | B14 |

Molecular target: T1, CD73 on the surface of human tumor cells
Assay: inhibition of cell-surface CD73 enzyme activity; right panel

| IC50 [nM] | Binder |
| --- | --- |
| 0.429 | B6 |
| 0.498 | B12 |
| 0.445 | B13 |
| 0.437 | B14 |

Molecular target: T1, CD73 on the surface of human tumor cells
Assay: FACS; NCI-H1299 cells, right table
Remark: another data set of the same source

| EC50 [nM] | Binder |
| --- | --- |
| 0.573 | B6 |
| 0.82 | B12 |
| 0.774 | B13 |
| 0.822 | B14 |

Molecular target: T3, extracellular domain of human CD73 …
Assay: ELISA

| EC50 | Binder |
| --- | --- |
| 0.096 nM and 0.103 nM | B6 |
| 0.083 nM | B12 |
| 0.095 nM | B13 |
| 0.101 nM | B14 |
| 0.109 nM | B1 |
| 0.026 nM | B7 |
| 0.037 nM | B8 |
| 0.107 nM | B2 |
| 0.02 nM | B9 |
| 0.032 nM | B10 |
| 0.033 nM | B11 |
| 0.139 nM | B3 |
| 0.108 nM | B4 |
| 0.033 nM | B5 |

Molecular target: T3, extracellular domain of human CD73 …
Assay: enzyme inhibition; right table

| IC50 [nM] | Binder |
| --- | --- |
| 0.057 | B12 |
| 0.06 | B13 |
| 0.058 | B14 |
| 0.12 | B1 |
| 0.03 | B7 |
| 0.07 | B2 |
| 0.128 | B3 |
| 0.06 | B4 |
| 0.04 | B5 |

Molecular target: T2, Carbon-terminal polyhistidine-labeled …
Assay: enzyme inhibition; right table

| IC50 [nM] | Binder |
| --- | --- |
| 0.055 | B6 |
| 0.058 | B12 |
| 0.065 | B13 |
| 0.056 | B14 |
| 0.28 | B1 |
| 0.04 | B7 |
| 0.11 | B2 |
| 0.132 | B3 |
| 0.1 | B4 |
| 0.07 | B5 |
